# Where no end group is shown, it is not given here.
# Experiments:
# human and rat bone cells = details: human and rat/murine orthologues; cited from earlier work
# subjects with knee OA = details: cited from earlier work
# integrin αvβ3 = biological target: T1, integrin αvβ3 (Homo sapiens, UniProt P05106+P06756); test: Competition ELISA with biotinylated RGD-Knottin, integrin αvβ3; format: binding
# T1 construct: purchased R&D Systems
# Procedure: All integrins used in this study contained the human sequence.
# The binding assay was conducted as a competition ELISA using biotinylated Knottin and unlabeled peptides.
# Methods were carried out as follows, as described by Bernhagen 2017.
# Incubation and washing buffers were prepared using standard protocols. Recombinant human integrins were purchased from R&D Systems (Minneapolis, U.S.A.). Strep-HRP (Streptavidin-Horseradish Peroxidase conjugate, Southern-Biotech, Birmingham, U.S.A.), and rabbit anti-mouse-HRP (Southern-Biotech, Birmingham, U.S.A.) were diluted 1:200-1:1000 for ELISA experiments.
# All integrins were dissolved according to manufacturer's protocol and stored in 25 μL aliquots of 100 μg/mL in PBS. For coating of one 96 well plate, 2 aliquots were thawed and dissolved in 9.95 mL of cold coating buffer for a 0.5 μg/mL solution.
# After coating, the plates were subsequently sealed and stored at 4° C. overnight. […]
# The following washing and incubation steps were performed according to manuscript. […] Peptides, whose integrin binding strength were to be determined, were mixed in 12 different concentrations (each 3-fold dilutions) with a fixed concentration of RGD-Knottin (both in PBS, 15 min, room temperature), followed by incubation of the plates with peptide/RGD-Knottin solutions.
# Substrate buffer incubation and absorbance measurements were identical to that for binding ELISA. […]
# [1] = biological target: T2, recombinant human integrin αvβ1 (human, UniProt P06756 31-992; P05556 21-728); test: integrin binding screen / competition ELISA with RGD-Knottin
# T2 construct: Bought from R&D Systems
# [2] = biological target: T3, recombinant human integrin α2β1 (human, UniProt P17301 30-1132; P05556 21-728); test: as above
# T3 construct: Bought from R&D Systems
# [3] = biological target: T4, recombinant human integrin α1β1 (human, UniProt P56199 29-1141; P05556 21-728); test: as above
# T4 construct: Bought from R&D Systems
# [4] = biological target: T5, recombinant human integrin αvβ8 (human, UniProt P06756 31-992; P26012 43-684); test: as above
# T5 construct: Bought from R&D Systems
# [5] = biological target: T6, recombinant human integrin αvβ6 (human, UniProt P06756 31-992; P18564 22-707); test: as above
# T6 construct: Bought from R&D Systems
# [6] = biological target: T7, recombinant human integrin α10β1 (human, UniProt O75578 23-1122; P05556 21-728, limits assumed); test: initial integrin binding screen
# T7 construct: Bought from R&D Systems; Named only for the initial screening
# [7] = biological target: T8, recombinant human integrin α6β1 (human, UniProt P23229 24-1011; P05556 21-728, limits assumed); test: initial integrin binding screen
# T8 construct: Bought from R&D Systems; Named only for the initial screening
# [8] = biological target: T9, recombinant human integrin α9β1 (human, UniProt Q13797 30-981; P05556 21-728, limits assumed); test: initial integrin binding screen
# T9 construct: Bought from R&D Systems; Named only for the initial screening
# [9] = biological target: T10, recombinant human integrin α3β1 (human, UniProt P26006 33-991; P05556 21-728); test: initial integrin binding screen
# T10 construct: Bought from R&D Systems; Named only for the initial screening
# [10] = biological target: T11, recombinant human integrin α4β1 (human, UniProt P13612 34-970; P05556 21-728, limits assumed); test: initial integrin binding screen
# T11 construct: Bought from R&D Systems; Named only for the initial screening
# [11] = biological target: T12, recombinant human integrin α5β1 (human, UniProt P08648 42-995; P05556 21-728); test: initial integrin binding screen
# T12 construct: Bought from R&D Systems; Named only for the initial screening
# [12] = biological target: T13, recombinant human integrin αvβ3 (human, UniProt P06756 31-992; P05106 27-718); test: competition ELISA; coated integrin, biotinylated RGD-Knottin as competitor
# T13 construct: Bought from R&D Systems
# [13] = biological target: T2, recombinant human integrin αvβ1; test: competition ELISA with Knottin; reference integrin αvβ3
# [14] = biological target: T3, recombinant human integrin α2β1; test: as above
# [15] = biological target: T4, recombinant human integrin α1β1; test: as above
# [16] = biological target: T5, recombinant human integrin αvβ8; test: as above
# [17] = biological target: T6, recombinant human integrin αvβ6; test: as above
# [18] = biological target: T7, recombinant human integrin α10β1; test: binding study with Knottin; reference integrin αvβ3
# [19] = biological target: T8, recombinant human integrin α6β1; test: as above
# [20] = biological target: T9, recombinant human integrin α9β1; test: as above
# [21] = biological target: T10, recombinant human integrin α3β1; test: as above
# [22] = biological target: T11, recombinant human integrin α4β1; test: as above
# [23] = biological target: T12, recombinant human integrin α5β1; test: as above
# [24] = biological target: T13, recombinant human integrin αvβ3; test: competition ELISA; coated integrin, biotinylated RGD-Knottin as competitor (FIG. 2)
# [25] = biological target: T13, recombinant human integrin αvβ3; test: competition ELISA; coated integrin, biotinylated RGD-Knottin as competitor (FIG. 4)
# [26] = biological target: T2, recombinant human integrin αvβ1; test: competition ELISA with biotinylated RGD-Knottin on coated integrin
# [27] = biological target: T3, recombinant human integrin α2β1; test: as above
# [28] = biological target: T14, recombinant human integrin αvβ5 (human, UniProt P06756 31-992; P18084 24-719); test: as above
# T14 construct: Bought from R&D Systems
# [29] = biological target: T4, recombinant human integrin α1β1; test: as above
# [30] = biological target: T5, recombinant human integrin αvβ8; test: as above
# [31] = biological target: T6, recombinant human integrin αvβ6; test: as above
molecule,measurement,setting,value
PDLLVRGDNDVPPFSGDGQHFMH [SEQ ID No: 14],biological activities in the bone cells of the other species,human and rat bone cells,interchangeably show biological activities in the bone cells of the other species
O=P(O)(O)C(O)(Cc1cccnc1)P(=O)(O)O [risedronate],effects on pain,"subjects with knee OA; n=2483, Bingham 2006",favoring placebo over active drug
GFQDSLDSNRQDPGTDPEKGIDF-NH2 [SEQ ID No: 15],binding affinity (IC50) of the peptide and integrin αvβ3,"integrin αvβ3; peptide concentration giving 50% inhibition of biotinylated knottin binding, triplicate",no binding affinity within the limits of the binding assay
same,IC50,integrin αvβ3; read-out: binding affinity (IC50) of the peptide and integrin αvβ3,> 3.94 mM
N#Cc1c(N(CC(=O)[O-])CC(=O)[O-])sc(C(=O)[O-])c1CC(=O)[O-].[Sr+2].[Sr+2] [strontium ranelate],risk of myocardial infarction,subjects with knee OA; in vivo,increase the risk of myocardial infarction
TDLQERGDNDISPFSGDGQPFKD-NH2 (also called human orthologue) [peptide of SEQ ID No: 10 (TPX-100)],binding result,[1],no binding
same,binding result,[2],no binding
same,binding result,[3],no binding
same,binding result,[4],no binding
same,binding result,[5],no binding
same,binding result,[6],no binding
same,binding result,[7],no binding
same,binding result,[8],no binding
same,binding result,[9],no binding
same,binding result,[10],no binding
same,binding result,[11],no binding
same,IC50,[12],~30 µg/mL
same,fold by which the binding affinity to αvβ3 is higher than to this integrin,[13],≥ 300 times
same,fold by which the binding affinity to αvβ3 is higher than to this integrin,[14],≥ 300 times
same,fold by which the binding affinity to αvβ3 is higher than to this integrin,[15],≥ 300 times
same,fold by which the binding affinity to αvβ3 is higher than to this integrin,[16],≥ 300 times
same,fold by which the binding affinity to αvβ3 is higher than to this integrin,[17],≥ 300 times
same,fold by which the binding affinity to αvβ3 is higher than to this integrin,[18],≥ 300 times
same,fold by which the binding affinity to αvβ3 is higher than to this integrin,[19],≥ 300 times
same,fold by which the binding affinity to αvβ3 is higher than to this integrin,[20],≥ 300 times
same,fold by which the binding affinity to αvβ3 is higher than to this integrin,[21],≥ 300 times
same,fold by which the binding affinity to αvβ3 is higher than to this integrin,[22],≥ 300 times
same,fold by which the binding affinity to αvβ3 is higher than to this integrin,[23],≥ 300 times
same,IC50,[24],~33 µg/mL
PDLQERGDNDISPFSGDGQPFKD-NH2 [peptide of SEQ ID No: 12 (canine orthologue of TPX-100)],fold by which the binding affinity to αvβ3 is higher than to this integrin,[13],≥ 300 times
same,fold by which the binding affinity to αvβ3 is higher than to this integrin,[14],≥ 300 times
same,fold by which the binding affinity to αvβ3 is higher than to this integrin,[15],≥ 300 times
same,fold by which the binding affinity to αvβ3 is higher than to this integrin,[16],≥ 300 times
same,fold by which the binding affinity to αvβ3 is higher than to this integrin,[17],≥ 300 times
same,fold by which the binding affinity to αvβ3 is higher than to this integrin,[18],≥ 300 times
same,fold by which the binding affinity to αvβ3 is higher than to this integrin,[19],≥ 300 times
same,fold by which the binding affinity to αvβ3 is higher than to this integrin,[20],≥ 300 times
same,fold by which the binding affinity to αvβ3 is higher than to this integrin,[21],≥ 300 times
same,fold by which the binding affinity to αvβ3 is higher than to this integrin,[22],≥ 300 times
same,fold by which the binding affinity to αvβ3 is higher than to this integrin,[23],≥ 300 times
same,IC50,[25],~23 µg/mL
"GFQDSLDSNRQDPGTDPEKGIDF-NH2 (Synthetic, made on a Rink-amide resin; also called scramble peptide) [scrambled peptide of SEQ ID No: 15]",binding result,[26],no binding
same,binding result,[27],no binding
same,binding result,[28],no binding
same,binding result,[29],no binding
same,binding result,[30],no binding
same,binding result,[31],no binding
